Results as given in patent US5434246A, “Parathyroid hormone derivatives” (Takeda Chemical Industries, Ltd., priority 1992, dated 1995).
Several values for one entry are separate records, joined by “and”; a condition that tells them apart may be missing. Identical values can stand only once. Square brackets hold non-standard residues; d marks the D form. Ends that are not written are not given here. Peptide text beside a SMILES is read from it. hCit = NC(=O)NCCCC[C@H](N)C(=O)O

Experiments:
[1] = molecular target: T1, PTH receptor (Mus musculus, UniProt P41593); assay: cAMP production in MC3T3-EI osteoblast-like cells (biological activity of PTH(1-34) derivatives); assay type: cell-based; details: 0.01-100 nM derivative, room temperature 30 minutes, hPTH(1-34) standard = 1.00
T1 construct: a mouse cranial bone-derived osteoblast-like cell strain, MC3T3-EI cells; endogenous in cells; host or cells: MC3T3-E1 mouse osteoblast-like cells
T1 sequence (P41593 27-591): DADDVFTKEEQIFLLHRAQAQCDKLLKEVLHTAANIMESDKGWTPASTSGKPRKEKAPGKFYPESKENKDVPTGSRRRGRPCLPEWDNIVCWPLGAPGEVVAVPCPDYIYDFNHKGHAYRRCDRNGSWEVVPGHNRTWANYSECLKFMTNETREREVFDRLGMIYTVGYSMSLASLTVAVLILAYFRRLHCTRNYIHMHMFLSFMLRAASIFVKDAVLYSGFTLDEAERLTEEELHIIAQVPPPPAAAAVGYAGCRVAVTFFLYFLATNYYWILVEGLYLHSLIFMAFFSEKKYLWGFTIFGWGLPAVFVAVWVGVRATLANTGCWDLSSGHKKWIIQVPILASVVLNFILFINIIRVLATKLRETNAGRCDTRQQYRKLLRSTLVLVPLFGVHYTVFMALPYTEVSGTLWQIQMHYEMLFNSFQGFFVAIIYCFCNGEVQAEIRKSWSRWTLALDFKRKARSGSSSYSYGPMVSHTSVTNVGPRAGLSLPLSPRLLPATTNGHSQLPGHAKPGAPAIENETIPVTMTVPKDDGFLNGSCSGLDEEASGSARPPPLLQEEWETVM
Procedure: The biological activity of the PTH (1-34) derivatives was evaluated by a modified version of the method reported by Shigeno et al. in The Journal of Biological Chemistry 263, 18369-18377 (1988). A culture solution (Hank's solution, containing 20 mM N-2-hydroxyethylpiperazine-N'-2-ethanesulfonic acid-(HEPES), 0.1% bovine serum albumin and 0.5 mM isobutylmethyl-xanthine) containing a 0.01, 0.1, 1, 10 or 100 nM derivative was added in an amount of 100 μl to a mouse cranial bone-derived osteoblast-like cell strain, MC3T3-EI cells, cultivated on a 96-well multiplate (Nunclon, Nunc), followed by reaction at room temperature for 30 minutes. After addition of 100 μl of 0.2N hydrochloric acid, the mixture was immersed in boiling water for 2.5 minutes, and cyclic adenosine monophosphate (cAMP) produced by a PTH receptor was extracted from the cells. The total cAMP in the culture solution and the cells was assayed using a commercial radioimmunoassay kit (cyclic AMP [^125 I] kit "Du Pont-Daiichi", Daiichi Kagaku Yakuhin).

[2] = molecular target: PTH receptor (mouse) (UniProt P41593)

| Compound | Biological Activity, Represented by Relative Activity to hPTH(1-34) [1] | cAMP production in MC3T3-E1 cells, relative activity to hPTH(1-34) (relative activity to hPTH(1-34)) [2] |
| --- | --- | --- |
| CC[C@H](C)[C@H](NC(=O)[C@H](CCC(=O)O)NC(=O)[C@H](CO)NC(=O)[C@@H](NC(=O)[C@@H](N)CO)C(C)C)C(=O)N[C@@H](CCC(N)=O)C(=O)N[C@@H](CC(C)C)C(=O)N[C@@H](CCSC)C(=O)N[C@@H](Cc1c[nH]cn1)C(=O)N[C@@H](CC(N)=O)C(=O)N[C@@H](CC(C)C)C(=O)NCC(=O)N[C@@H](CCCCN)C(=O)N[C@@H](Cc1c[nH]cn1)C(=O)N[C@@H](CC(C)C)C(=O)N[C@@H](CCCCNC(N)=O)C(=O)N[C@@H](CO)C(=O)N[C@@H](CCSC)C(=O)N[C@@H](CCC(=O)O)C(=O)N[C@@H](CCCNC(=N)N)C(=O)N[C@H](C(=O)N[C@@H](CCC(=O)O)C(=O)N[C@@H](Cc1c[nH]c2ccccc12)C(=O)N[C@@H](CC(C)C)C(=O)N[C@@H](CCCNC(=N)N)C(=O)N[C@@H](CCCCN)C(=O)N[C@@H](CCC(N)=O)C(=O)N[C@@H](CC(C)C)C(=O)N[C@@H](CCC(N)=O)C(=O)N[C@@H](CC(=O)O)C(=O)N[C@H](C(=O)N[C@@H](Cc1c[nH]cn1)C(=O)N[C@@H](CC(N)=O)C(=O)N[C@@H](Cc1ccccc1)C(=O)O)C(C)C)C(C)C [[Hci^16,Gln^27]hPTH(1-34)] (H-SVSEIQLMHNLGKHL[hCit]SMERVEWLRKQLQDVHNF-OH) | 1.54 | – |
| SVSEIQLMHNLGKHLKDMERVEWLRKKLQDVHNF [[Lys^16,Asp^17]hPTH(I-34), [Lys^16 Asp^17]hPTH(1-3)] | 1.24 | – |
| [D-Ala^3 ]hPTH(1-34) (from UniProt P01270) (peptide) | – | 2.17 |
| SVSEIQLMHNLGKHLRSMERVEWLRKQLQDVHNF [[Arg^16,Gln^27]hPTH(1-34)] | 2.16 | – |
| [Thr^16 ]hPTH(1-34) (from UniProt P01270) (peptide) | – | 1.74 |
| [Lys^15,16,His^27 ]hPTH(1-34) (from UniProt P01270) (peptide) | – | 1.49 |
| [Arg^16,Gln^27 ]hPTH(1-34) (from UniProt P01270) (peptide) | – | 2.16 |
| SVSEIQLMHNLGKKKKKMERVEWLRKKLQDVHNF [[Lys^14,15,16,17]hPTH (1-34), [Lys^14,15,16,17]hPTH(1-34)] | 6.39 | – |
| [Orn^16,Gln^27 ]hPTH(1-34) (from UniProt P01270) (peptide) | – | 1.82 |
| CC[C@H](C)[C@H](NC(=O)[C@H](CCC(=O)O)NC(=O)[C@@H](C)NC(=O)[C@@H](NC(=O)[C@@H](N)CO)C(C)C)C(=O)N[C@@H](CCC(N)=O)C(=O)N[C@@H](CC(C)C)C(=O)N[C@@H](CCSC)C(=O)N[C@@H](Cc1c[nH]cn1)C(=O)N[C@@H](CC(N)=O)C(=O)N[C@@H](CC(C)C)C(=O)NCC(=O)N[C@@H](CCCCN)C(=O)N[C@@H](Cc1c[nH]cn1)C(=O)N[C@@H](CC(C)C)C(=O)N[C@@H](CC(N)=O)C(=O)N[C@@H](CO)C(=O)N[C@@H](CCSC)C(=O)N[C@@H](CCC(=O)O)C(=O)N[C@@H](CCCNC(=N)N)C(=O)N[C@H](C(=O)N[C@@H](CCC(=O)O)C(=O)N[C@@H](Cc1c[nH]c2ccccc12)C(=O)N[C@@H](CC(C)C)C(=O)N[C@@H](CCCNC(=N)N)C(=O)N[C@@H](CCCCN)C(=O)N[C@@H](CCCCN)C(=O)N[C@@H](CC(C)C)C(=O)N[C@@H](CCC(N)=O)C(=O)N[C@@H](CC(=O)O)C(=O)N[C@H](C(=O)N[C@@H](Cc1c[nH]cn1)C(=O)N[C@@H](CC(N)=O)C(=O)N[C@@H](Cc1ccccc1)C(=O)O)C(C)C)C(C)C [[D-Ala^3]hPTH(1-34)] | 2.17 | – |
| CC[C@H](C)[C@H](NC(=O)[C@H](CCC(=O)O)NC(=O)[C@H](CO)NC(=O)[C@@H](NC(=O)[C@@H](N)CO)C(C)C)C(=O)N[C@@H](CCC(N)=O)C(=O)N[C@@H](CC(C)C)C(=O)N[C@@H](CCSC)C(=O)N[C@@H](Cc1c[nH]cn1)C(=O)N[C@@H](CC(N)=O)C(=O)N[C@@H](CC(C)C)C(=O)NCC(=O)N[C@@H](CCCCN)C(=O)N[C@@H](Cc1c[nH]cn1)C(=O)N[C@@H](CC(C)C)C(=O)N[C@@H](CC(N)=O)C(=O)N[C@@H](CO)C(=O)N[C@@H](CCSC)C(=O)N[C@@H](CCC(=O)O)C(=O)N[C@@H](CCCNC(=N)N)C(=O)N[C@H](C(=O)N[C@@H](CCC(=O)O)C(=O)N[C@@H](Cc1c[nH]c2ccccc12)C(=O)N[C@@H](CC(C)C)C(=O)N[C@@H](CCCNC(=N)N)C(=O)N[C@@H](CCCCN)C(=O)N[C@@H](CCCCN)C(=O)N[C@@H](CC(C)C)C(=O)N[C@@H](CCC(N)=O)C(=O)N[C@@H](CC(=O)O)C(=O)N[C@H](C(=O)N[C@@H](Cc1c[nH]cn1)C(=O)N[C@@H](CC(N)=O)C(=O)N[C@@H](Cc1ccccc1)C(=O)O)C(C)C)C(C)C [hPTH(1-34), reference compound] | 1.00 | – |
| [Lys^15,16,17 ]hPTH(1-34) (from UniProt P01270) (peptide) | – | 7.62 |
| [Gln^16 ]hPTH(1-34) (from UniProt P01270) (peptide) | – | 1.73 |
| [Lys^16,Asp^17 ]hPTH(1-34) (from UniProt P01270) (peptide) | – | 1.24 |
| [Arg^26,27 ]hPTH(1-34) (from UniProt P01270) (peptide) | – | 0.98 |
| [Glu^16 ]hPTH(1-34) (from UniProt P01270) (peptide) | – | 1.55 |
| [Gln^26,27 ]hPTH(1-34) (from UniProt P01270) (peptide) | – | 1.19 |
| [D-Lys^16 ]hPTH(1-34) (from UniProt P01270) (peptide) | – | 0.86 |

The remaining lines, values ahead:

| Biological Activity, Represented by Relative Activity to hPTH(1-34) [1] | cAMP production in MC3T3-E1 cells, relative activity to hPTH(1-34) (relative activity to hPTH(1-34)) [2] | Compound |
| --- | --- | --- |
| 0.98 | – | SVSEIQLMHNLGKHLNSMERVEWLRRRLQDVHNF [[Arg^26,27]hPTH (1-34), [Arg^26,27]hPTH(1-34)] |
| 8.85 | – | SVSEIQLMHNLGKHLKKMERVEWLRKKLQDVHNF [[Lys^16,17]hPTH(1-34)] |
| – | 1.54 | [Hci^16,Gln^27 ]hPTH(1-34) (from UniProt P01270) (peptide) |
| – | 0.96 | [Thr^27 ]hPTH(1-34) (from UniProt P01270) (peptide) |
| – | 0.41 | [Gln^25,26,27 ]hPTH(1-34) (from UniProt P01270) (peptide) |
| – | 6.39 | [Lys^14,15,16,17 ]hPTH(1-34) (from UniProt P01270) (peptide) |
| – | 7.47 | [Lys^15,16,17,His^27 ]hPTH(1-34) (from UniProt P01270) (peptide) |
| – | 8.85 | [Lys^16,17 ]hPTH(1-34) (from UniProt P01270) (peptide) |
| – | 5.48 and 3.37 | [Lys^16 ]hPTH(1-34) (from UniProt P01270) (peptide) |
